From publication PMC3528264

Molecular target: AflJ (A. parasiticus BN9), yeast two-hybrid fusion (A. parasiticus) (UniProt O42716)
Assay: two-hybrid

Chain of UniProt O42716 (O42716 whole entry, the tested form may be a part): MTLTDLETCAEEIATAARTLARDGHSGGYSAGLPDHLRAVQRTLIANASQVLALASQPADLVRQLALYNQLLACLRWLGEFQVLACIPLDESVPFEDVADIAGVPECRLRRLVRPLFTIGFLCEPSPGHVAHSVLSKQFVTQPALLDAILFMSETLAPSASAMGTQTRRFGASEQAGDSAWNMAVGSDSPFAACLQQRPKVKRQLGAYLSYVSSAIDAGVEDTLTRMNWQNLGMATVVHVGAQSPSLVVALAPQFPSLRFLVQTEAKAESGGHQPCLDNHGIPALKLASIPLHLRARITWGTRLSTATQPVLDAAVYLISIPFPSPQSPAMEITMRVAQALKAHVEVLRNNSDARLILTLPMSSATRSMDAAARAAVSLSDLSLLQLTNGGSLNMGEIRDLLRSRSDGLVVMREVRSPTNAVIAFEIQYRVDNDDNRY

For “AflR, Gal4 activation domain fusion (pGADT7) (from UniProt P43651 1-444) (natural protein)”, the colonies on QDO was 125 colonies.
